The data set in a line: yeast display, Sf9 membrane polyspecificity reagent, FACS + sequencing; frameworks hold sequencing errors. In outline: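 Nanobodies came from a synthetic yeast display library in Saccharomyces cerevisiae BJ5465, induced with galactose for 36–48 hours and stained for 1 hour at 4 °C with 10% biotinylated, detergent-solubilized Sf9 membrane reagent. Cells were enriched on streptavidin microbeads and then FACS-sorted, with low and high (top ~1%) gates set on anti-HA fluorescence for expression and streptavidin fluorescence for reagent binding. Each polyreactivity label reflects the gate a clone came from. Genes were amplified by colony PCR, sequenced by MiSeq 2 × 250 and filtered by CDR length.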
Take “QVQLVESGGGLVQAGGSLRLSCAASGGIGSYAMGWYRQAPGKERELVAVITAGGDSTYYADSVKGRFTISRDNAKNTVYLQMNSLKPEDTAVYYCNTVYRSKRYQYDYWGQGTQVTVSS”: the “polyreactivity (PSR sort gate)” value is “high polyreactivity”.

Consider “QVQLVESGGGLVQAGGSLRLSCAASGGIIDWYVMGWYSQARGKERELVAAISYNGGSTYYADSVKGRFTISRDNAKNTGYLQMNSLKPEDTAVYYCAAAVTWPYRYVWYDYWGQGTQVTVSS”, for which the “polyreactivity (PSR sort gate)” value is on record as “low polyreactivity”.

“QVQLVESGGGLVQAGGSLRLSCAASGGIIRTYARGWYRQAPGNETELVAAITTNAGSTYYADSVKGRFTISRDNAKNTVYLQMNSLKPEDTAVYYCAARWYYPYRTRYSASYGYWVQGTQVTVSS”: the “polyreactivity (PSR sort gate)” value was “high polyreactivity”.

For “QVQLVESGGGLVQAGGSLRLSCAASGGIIWAYAMGWYRQAPGKERELVAAISSSTGTTYYADSVKGRFTISRDNAKNTVYLQMNSLKPEDTAVYYCAAYAYIGDYVSYYGGDYWGQGTQVTVSS”, the “polyreactivity (PSR sort gate)” value is “low polyreactivity”.

With “QVQLVESGGGLVQAGGSLRLSCAASGGILDTYAMGWYRQAPGKERELVAAITSGGNTNYADSVKGRFTISRDNAKNTVYLQMNSLKPEDTAVYYCNVVTWYYVFRPWEYDYWGQGSQVTVSS”, the “polyreactivity (PSR sort gate)” value is given as “low polyreactivity”.

For “QVQLVESGGGLVQAGGSLRLSCAASGGILHGYAMGWYIQEPGKERELVSGITYSGDDTNYADSVKGRFTISRDNAKNTVYLQMNSLKPEDTAVYYCAAGPVWHIFTIDYVSFDDWGQGTQVTVSS”, the “polyreactivity (PSR sort gate)” value is reported as “low polyreactivity”.

In the case of “QVQLVESGGGLVQAGGSLRLSCAASGGILNRYAMGWYRQAPGKERELVAAIRWSGGSTYYADSVKGRFTISRDNAKNTVYLQMNSLKPEDTAVYYCAADVYYYHVLDFDYWGQGTLVTVSS”, the “polyreactivity (PSR sort gate)” value is reported as “low polyreactivity”.

In the case of “QVQLVESGGGLVQAGGSLRLSCAASGGILRQNTMGWYRQAPGKETELVAAISSSGGRTYYADSVKGRFTISRDNAKNTVYLQMNSLKPEDTAVYYCARGYSWSVGYPRVHDMDYWGQGTQVTVSS”, the “polyreactivity (PSR sort gate)” value was “high polyreactivity”.

On to “QVQLVESGGGLVQAGGSLRLSCAASGGILWFYAMGWYIQAPGKEREFVAAIDLGGGSTYYADSVKGRFTISRDNAKTTVYLQMNSLKPEDTAVYYCNAETSGHYSTIMDYWGQGTQVTVSS”, for which the “polyreactivity (PSR sort gate)” value is given as “low polyreactivity”.

On to “QVQLVESGGGLVQAGGSLRLSCAASGGLFKVYGMRLYRQAPGQERELVAAISWTTGGTYYADSVKGRFTISRDNAKNTVYLQMNSLKPEDTAVYYCNAPTWYYSGVRYDYWGQGTQVTVSS”, for which the “polyreactivity (PSR sort gate)” value is listed as “high polyreactivity”.

For “QVQLVESGGGLVQAGGSLRLSCAASGGNFLAYAMGWYRQAPGKERELVAAITRRGTRTYYADSVKGRFTISRDNAKNTVYLQMNSLKPEDTAVYYCAADYYPASAGFDYWGQGTQVTVSS”, the “polyreactivity (PSR sort gate)” value is reported as “high polyreactivity”.

For the sequence “QVQLVESGGGLVQAGGSLRLSCAASGGNFSPNAMGWYRQAPGKERELVAAISSNGGSTNYADSVKGRFTISRDNAKNTVYLKMNSLKPEDTAVYYCAGLQKRRSYWRPFYWGQGTQVTVSS”, the “polyreactivity (PSR sort gate)” value is “low polyreactivity”.

Consider “QVQLVESGGGLVQAGGSLRLSCAASGGSFIANAMGRYRQAPGTEREVVAAITSGGSTNYADSVKGRFTISRDNAKNTVYLQMNSLKPDDTAVYYCNAEQNPSGLYDYRGVEGEMGYWGQGTQVTVSS”, for which the “polyreactivity (PSR sort gate)” value is listed as “low polyreactivity”.

Regarding “QVQLVESGGGLVQAGGSLRLSCAASGGSFLVNDMGWYRQAPGTERELVAAITSGGGTYYADSVKGRFTISRDNAKNTVYLQMNSLNPEDTAVYYCARDTYRPIVSNESYGYWGQGTQVTVSS”, the “polyreactivity (PSR sort gate)” value was “low polyreactivity”.

Take “QVQLVESGGGLVQAGGSLRLSCAASGGTCGTNAMGWYRQAPGKEREFVAAISRSGGSTNYADSVKGRFTISRDKAKNTVYLQMNSLKPEDTAVYYCATRVIVVPLGGGYYSWGQGTQVTVSS”: the “polyreactivity (PSR sort gate)” value is given as “high polyreactivity”.

As to “QVQLVESGGGLVQAGGSLRLSCAASGGTFAGYAMGWYRQAPGKERELVAAITYRSSTTYYADSVKGRFTISRDNANNTVYLQMNSLKPEDTAVYYCAARTRGTGRNRDYWGQGTQVTVSS”, the “polyreactivity (PSR sort gate)” value is reported as “high polyreactivity”.

Consider “QVQLVESGGGLVQAGGSLRLSCAASGGTFATYAMGWYRQAPGKEKELVAAISWSGGSTYYADSVKGRFTISRDNAKNTVYLQMNSLKPEDTAVYYCNALPRLGGGAEKLDYWGQGTQVTVSS”, for which the “polyreactivity (PSR sort gate)” value was “high polyreactivity”.

Consider “QVQLVESGGGLVQAGGSLRLSCAASGGTFAVNAMGWYRQAPGKEREFVAAISSRGSTYYADSVKGRFTISRDNAKNNVYLQMNSLKPEDTAVYYCAAYRSYWEVYPRMYYWGQGTQVTVSS”, for which the “polyreactivity (PSR sort gate)” value was “high polyreactivity”.

On to “QVQLVESGGGLVQAGGSLRLSCAASGGTFAYYAMGWYRQAPGKERELVAVISRRGTSTYYADSVKGRFTISRDNAKNTVYLQMNSLKPEDTAVYYCNARTWDHPYGYWGQGTQVTVSS”, for which the “polyreactivity (PSR sort gate)” value is on record as “high polyreactivity”.

As for “QVQLVESGGGLVQAGGSLRLSCAASGGTFDVYTMGWYRPAPGKERELVAAISSSGARTYYADSVKGRFTISRDNAKNTVNLQMNSLKPEDTAVFYCATRSLGLRWHYYYWGQGTQVTVSS”, the “polyreactivity (PSR sort gate)” value is on record as “high polyreactivity”.

With “QVQLVESGGGLVQAGGSLRLSCAASGGTFDVYTMGWYRQAPGKERELVAAIDNGGSTNYADSVKGRFTISRDNAKNTVYLQMNSLQPEDTAVYYCAADEVYLFWGIAEFIYDYWGQGTQVTVSS”, the “polyreactivity (PSR sort gate)” value is “low polyreactivity”.

Turning to “QVQLVESGGGLVQAGGSLRLSCAASGGTFEFYTMGLYRQAPGKERELVAVINASGDSTYYADSVKGRFTISRDNAKNTVYLQMNSLKPEDTAVYYCAADHRGEYDYWGQGTQVTVSS”, the “polyreactivity (PSR sort gate)” value is listed as “low polyreactivity”.

In the case of “QVQLVESGGGLVQAGGSLRLSCAASGGTFEPNAMGWYRQPPGKEREFVAAITWNGGRTNYADSVKGRFTISRDNAKNTVYLQMNSLKPEDTAVYYCAARSYTDYNYWGQGTQVTVSS”, the “polyreactivity (PSR sort gate)” value is on record as “high polyreactivity”.

On to “QVQLVESGGGLVQAGGSLRLSCAASGGTFESYTMGWYRQAPGKERELVATISTSGGRTYYADSVKGRFTISRDNAKNTVYLQMHSLKPEDTAVYYCNKVSDAYGEYVTLHLDYWGQGTLVTVSS”, for which the “polyreactivity (PSR sort gate)” value was “low polyreactivity”.

Regarding “QVQLVESGGGLVQAGGSLRLSCAASGGTFFSNAMGWYRQAPGKERELVAGITSGGRTYYADSVKGRFTISRDNAKNTVYLQMNSLKPEDTAVYYCATQSWVRYGQPEFDYWGQGTQVTVSS”, the “polyreactivity (PSR sort gate)” value is reported as “high polyreactivity”.

Turning to “QVQLVESGGGLVQAGGSLRLSCAASGGTFGQYAMGWYRLAPGKERELVAAITSSGGRTYYADSVKGRFTISRDNAKNTVYLQMNSLKPEDTAVYYCAADVQSRYVGEGDYWGQGTQVTVSS”, the “polyreactivity (PSR sort gate)” value is recorded as “high polyreactivity”.

For the sequence “QVQLVESGGGLVQAGGSLRLSCAASGGTFGRNAMGWYRQAPGKERELVATITRRGGSTYYADSVKGRFTISRDNAKNTVYLQMNSLKPEDTAVYYCAAAGRYSNGTGYGYWGQGTQVTVSS”, the “polyreactivity (PSR sort gate)” value was “high polyreactivity”.

Consider “QVQLVESGGGLVQAGGSLRLSCAASGGTFGSYARGWYRQAPGNEREFVAAIRRGTSTYYADSVQGRFTISRDNAKNTVYLQMNRLKPEDTEVYYCAATPQAHSERYYYQRKYDYWGQGTQVTVSS”, for which the “polyreactivity (PSR sort gate)” value is “low polyreactivity”.

For the sequence “QVQLVESGGGLVQAGGSLRLSCAASGGTFGTNTMGWYRQAPGKERELVAAISKRGGRTYYADSVKGRFTISRDNAKNTVYLQMNSLKPEDTAVYYCAADTGGNPKYDYWGQGTQVTVSS”, the “polyreactivity (PSR sort gate)” value is listed as “high polyreactivity”.

“QVQLVESGGGLVQAGGSLRLSCAASGGTFGYYAMGWYRQAPGKERELVAAINRSDGGTYYADSVKGRFTISRDNAKNTVYLQMNSLKPEDTAVYYCNADDFYYDEPYDYWGQGTQVTVSS”: the “polyreactivity (PSR sort gate)” value is on record as “low polyreactivity”.

On to “QVQLVESGGGLVQAGGSLRLSCAASGGTFIANAMGWYRQAPGKERELVATINANADTTYYADSVKGRFTISRDNAKNTVYLQMNSLKPEDTAVYYCAAAQRYPIKYYYWGQGTQVTVSS”, for which the “polyreactivity (PSR sort gate)” value is given as “low polyreactivity”.

On to “QVQLVESGGGLVQAGGSLRLSCAASGGTFKFYAMGWYRQAPGKERELVAAISRRGGNTYYADSVKGRFTISRDNAKNTVYLQMNSLKPEDTAVYYCAVDYRSTGFGYWGQGTQVTVSS”, for which the “polyreactivity (PSR sort gate)” value is given as “high polyreactivity”.

“QVQLVESGGGLVQAGGSLRLSCAASGGTFLAYAMGWYRQAPGKERELVAAITRRGTRTYYADSVKGRFTISRDNANNTVYLQMNSLKPEDTAVYYCAVSGGFYWGQGTQVTVSS”: the “polyreactivity (PSR sort gate)” value was “high polyreactivity”.

Regarding “QVQLVESGGGLVQAGGSLRLSCAASGGTFLGYAMGWYRQAPGKDRELVAAIAASGGNTYYADSVKGRFTISRDNAKNTVYLQMNSLKPEATAVYYGAARQYRSVLKYDYWGQGTQVTVSS”, the “polyreactivity (PSR sort gate)” value is “high polyreactivity”.

As for “QVQLVESGGGLVQAGGSLRLSCAASGGTFLYYAMGWYRQAPGKETELVAAISRGGSTHYADSVKGRFTISRDNAKNTVYLQMNSLKPEDTAVYYCAVDGGEFSSYGYWGQGTQVTVSS”, the “polyreactivity (PSR sort gate)” value is listed as “low polyreactivity”.

For the sequence “QVQLVESGGGLVQAGGSLRLSCAASGGTFPQYAKGWYRQAPGKEREFVADITTRGGTTYYADSVKGRFTISRDNAKNTVYLQMNSLKPEENAVYYCAADNPADWWGLDYWGQGTQVTVSS”, the “polyreactivity (PSR sort gate)” value is “low polyreactivity”.

As to “QVQLVESGGGLVQAGGSLRLSCAASGGTFPRYAMGWYRQAPGKERELVAAISRSGGSTYYADSVKGRFTISRDNAKNTVYLQMNSLKPEDTAVYYCATGYSYIMDYWGQGTQVTVSS”, the “polyreactivity (PSR sort gate)” value is recorded as “high polyreactivity”.

Regarding “QVQLVESGGGLVQAGGSLRLSCAASGGTFPYNAMGWYRQAPGKERELVAVITSGDGTYYADSVKGRFTISRDNAKNTVYLQMNSLKPEDTAVYYCAADYVVWFSFVYVVEYDYWGQGTQVTVSS”, the “polyreactivity (PSR sort gate)” value is recorded as “low polyreactivity”.

In the case of “QVQLVESGGGLVQAGGSLRLSCAASGGTFQRYAMGWYRQAPGKERELVAAISSGGRTYYADSVKGRFTISRDNAKNTVYLQMNSLKAVDTAVYYCNAVGWTRYWRIGWSAYYYWGQGTQETVSS”, the “polyreactivity (PSR sort gate)” value is “high polyreactivity”.

For “QVQLVESGGGLVQAGGSLRLSCAASGGTFQSNALGWYRQAPAKERELVASITSRGSSTYYADSVKGRFTISRDNAKNTVYLQMNSLKPEDTAVYYCAKGRSWQIYYKGGIKGGYWGQGTQVTVSS”, the “polyreactivity (PSR sort gate)” value is “low polyreactivity”.

The values are drawn from the nanobody polyreactivity screen of Harvey et al. (2022).
